In patent US20020160482A1, “Methods for protein purification” (priority 2001, published 2002):

Assays:
[1] = target: T1, purified SSAO protein (recombinant human SSAO) (Homo sapiens, UniProt Q16853); experiment: Semicarbazide inhibition of benzylamine oxidase activity (spectrophotometric amine oxidase assay); format: biochemical; settings: in the presence of 0.1 mM semicarbazide, read-out: benzylamine oxidase activity inhibited
T1 construct: residues 29-763 of the human SSAO protein cloned from human aorta cDNA; mutated S. japonicum GST (Cys85/138/178 to Ser) with SQSQ spacer and 3C protease site EALFQG (N, cleaved yes); murine IgG1 heavy chain signal peptide (mutated), followed by an 18 amino acid spacer (N, cleaved yes); made in house; host or cells: HEK293 cells stably transfected with pMB887, protein secreted into the medium
T1 sequence (Q16853 29-763): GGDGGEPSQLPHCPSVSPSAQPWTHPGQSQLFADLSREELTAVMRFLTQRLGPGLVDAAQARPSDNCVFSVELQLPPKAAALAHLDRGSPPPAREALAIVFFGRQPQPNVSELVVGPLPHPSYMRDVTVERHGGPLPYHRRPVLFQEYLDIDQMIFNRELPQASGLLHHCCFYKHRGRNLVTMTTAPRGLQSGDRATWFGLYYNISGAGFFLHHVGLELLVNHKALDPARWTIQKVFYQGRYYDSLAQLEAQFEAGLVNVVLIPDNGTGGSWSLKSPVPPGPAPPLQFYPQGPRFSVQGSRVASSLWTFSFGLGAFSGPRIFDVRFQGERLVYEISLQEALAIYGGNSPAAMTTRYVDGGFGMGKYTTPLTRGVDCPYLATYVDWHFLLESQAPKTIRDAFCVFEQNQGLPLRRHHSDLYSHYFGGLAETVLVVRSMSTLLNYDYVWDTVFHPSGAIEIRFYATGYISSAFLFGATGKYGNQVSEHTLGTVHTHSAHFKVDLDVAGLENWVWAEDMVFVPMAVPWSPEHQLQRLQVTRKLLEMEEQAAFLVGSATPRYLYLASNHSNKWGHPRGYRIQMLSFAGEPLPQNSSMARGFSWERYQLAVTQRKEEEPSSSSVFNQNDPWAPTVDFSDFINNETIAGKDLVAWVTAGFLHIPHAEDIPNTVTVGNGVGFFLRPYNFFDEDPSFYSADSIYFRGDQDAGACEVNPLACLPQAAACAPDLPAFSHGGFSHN
Protocol: A spectrophotometric assay for monoamine oxidases described by Holt and coworkers (Holt et al., 1997) was used to determine amine oxidase activity in samples from the different purification steps. The assay was performed in 96-well microtiter plates incubated at 37° C. in a SPECTRAmax 250 microplate spectrophotometer (Molecular Devices, Sunnyvale, Calif.). The reagent mix containing 1 mM vanillic acid (Sigma, St. Louis, Mo.), 500 μM 4-aminoantipyrine (Sigma), and 4U ml^−1 peroxidase (type VI from horseradish, Sigma) in 0.2 M potassium phosphate buffer (pH 7.6) was prepared on the same day assays were performed and kept at 5° C. until used. Reactions were started by mixing 50 μl sample, 50 μl reagent mix and 200 μl potassium phosphate buffer with or without 750 μM benzylamine hydrochloride (Sigma) and were performed in triplicate. In order to obtain blank reference values, wells were analyzed with buffer added in place of sample. Absorbance changes were followed at 490 nm for 10-40 minutes. Standard curves were prepared with dilutions of a stock solution of H2O2 in potassium phosphate buffer ranging from 10 nmol/well to 120 nmol/well. When inhibition experiments were carried out, the samples were incubated in 300 μM semicarbazide at 37° C. for 30 minutes, before addition of the benzylamine solution. […]

[2] = Spectrophotometric amine oxidase assay: specific benzylamine oxidase activity of purified proteins; format: biochemical, human
Protocol: A spectrophotometric assay for monoamine oxidases described by Holt and coworkers (Holt et al., 1997) was used to determine amine oxidase activity in samples from the different purification steps. The assay was performed in 96-well microtiter plates incubated at 37° C. in a SPECTRAmax 250 microplate spectrophotometer (Molecular Devices, Sunnyvale, Calif.). The reagent mix containing 1 mM vanillic acid (Sigma, St. Louis, Mo.), 500 μM 4-aminoantipyrine (Sigma), and 4U ml^−1 peroxidase (type VI from horseradish, Sigma) in 0.2 M potassium phosphate buffer (pH 7.6) was prepared on the same day assays were performed and kept at 5° C. until used. Reactions were started by mixing 50 μl sample, 50 μl reagent mix and 200 μl potassium phosphate buffer with or without 750 μM benzylamine hydrochloride (Sigma) and were performed in triplicate. In order to obtain blank reference values, wells were analyzed with buffer added in place of sample. Absorbance changes were followed at 490 nm for 10-40 minutes. Standard curves were prepared with dilutions of a stock solution of H2O2 in potassium phosphate buffer ranging from 10 nmol/well to 120 nmol/well. When inhibition experiments were carried out, the samples were incubated in 300 μM semicarbazide at 37° C. for 30 minutes, before addition of the benzylamine solution.

NNC(N)=O [semicarbazide]
inhibition at 100 µM [1]: > 95%

B1: SSAO protein: purified soluble recombinant human SSAO (residues 29-763) after removal of the GST fusion partner (protein, listed as Homo sapiens)
chain: GGDGGEPSQLPHCPSVSPSAQPWTHPGQSQLFADLSREELTAVMRFLTQRLGPGLVDAAQARPSDNCVFSVELQLPPKAAALAHLDRGSPPPAREALAIVFFGRQPQPNVSELVVGPLPHPSYMRDVTVERHGGPLPYHRRPVLFQEYLDIDQMIFNRELPQASGLLHHCCFYKHRGRNLVTMTTAPRGLQSGDRATWFGLYYNISGAGFFLHHVGLELLVNHKALDPARWTIQKVFYQGRYYDSLAQLEAQFEAGLVNVVLIPDNGTGGSWSLKSPVPPGPAPPLQFYPQGPRFSVQGSRVASSLWTFSFGLGAFSGPRIFDVRFQGERLVYEISLQEALAIYGGNSPAAMTTRYVDGGFGMGKYTTPLTRGVDCPYLATYVDWHFLLESQAPKTIRDAFCVFEQNQGLPLRRHHSDLYSHYFGGLAETVLVVRSMSTLLNYDYVWDTVFHPSGAIEIRFYATGYISSAFLFGATGKYGNQVSEHTLGTVHTHSAHFKVDLDVAGLENWVWAEDMVFVPMAVPWSPEHQLQRLQVTRKLLEMEEQAAFLVGSATPRYLYLASNHSNKWGHPRGYRIQMLSFAGEPLPQNSSMARGFSWERYQLAVTQRKEEEPSSSSVFNQNDPWAPTVDFSDFINNETIAGKDLVAWVTAGFLHIPHAEDIPNTVTVGNGVGFFLRPYNFFDEDPSFYSADSIYFRGDQDAGACEVNPLACLPQAAACAPDLPAFSHGGFSHN
specific activity ([2]; after cleavage, flow-through of second glutathione-Sepharose step (cleavage buffer with DTT)): 522 nmol/min/mg | specific activity ([2]; after removal of GST fusion partner and diafiltration (final product)): 809 nmol/min/mg | specific activity ([2]; per purification step, nmol of H2O2 produced per minute using 0.5 mM benzylamine as substrate, listed as Diafiltrate): 809 nmol/min/mg | specific activity ([2]; per purification step, nmol of H2O2 produced per minute using 0.5 mM benzylamine as substrate, listed as GSH-affinity step-2 (flow-through)): 522 nmol/min/mg
